# Test results reported in the supplement of paper PMC9112550, “Optimization of the antimicrobial peptide Bac7 by deep mutational scanning” (BMC Biology, 2022).
# Tested on: Escherichia coli TOP10
# Assay: shrunken log2 fold change of peptide-encoding DNA abundance (4.5 h post-induction vs induction); higher = less antimicrobial activity (less host growth inhibition)
# Conditions: time post-induction: 4.5 h; library: site-saturation at positions 5, 18, 19, 20
# 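Further: peptides expressed intracellularly from a pBAD plasmid library in pooled LB shake-flask culture, induced with 0.3% L-arabinose, DNA abundance read by NGS, three biological replicates, DESeq2 with apeglm shrinkage.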
row,Sequence,shrunken log2 fold change
1,RRIRIRPPRLPRPRPRPTKWPRP,-0.15
2,RRIRQRPPRLPRPRPRPEREPRP,0.0841
3,RRIRGRPPRLPRPRPRPSWRPRP,0.477
4,RRIRHRPPRLPRPRPRPYSCPRP,-0.0837
5,RRIRRRPPRLPRPRPRPNWSPRP,-0.0147
6,RRIRIRPPRLPRPRPRPHIPPRP,-0.482
7,RRIRARPPRLPRPRPRPPWFPRP,0.36
8,RRIRSRPPRLPRPRPRPHNMPRP,-0.798
9,RRIRYRPPRLPRPRPRPDMFPRP,-0.0113
10,RRIRYRPPRLPRPRPRPMHRPRP,-0.0541
11,RRIRDRPPRLPRPRPRPIFVPRP,0.0563
12,RRIRIRPPRLPRPRPRPPIIPRP,-0.0124
13,RRIRGRPPRLPRPRPRPNPGPRP,0.158
14,RRIRCRPPRLPRPRPRPNPRPRP,0.378
15,RRIRRRPPRLPRPRPRPKQAPRP,0.908
16,RRIRLRPPRLPRPRPRPCGDPRP,-0.00813
17,RRIRTRPPRLPRPRPRPIQNPRP,-0.147
18,RRIRYRPPRLPRPRPRPGQQPRP,0.0541
19,RRIRWRPPRLPRPRPRPHMRPRP,0.494
20,RRIRHRPPRLPRPRPRPPSMPRP,-0.343
21,RRIRDRPPRLPRPRPRPSQIPRP,0.016
22,RRIRPRPPRLPRPRPRPIMMPRP,-0.199

row,Sequence,shrunken log2 fold change
1,RRIRPRPPRLPRPRPRPEIIPRP,-0.0816
2,RRIRNRPPRLPRPRPRPCSRPRP,-0.0877
3,RRIRFRPPRLPRPRPRPWAVPRP,-0.0667
4,RRIRTRPPRLPRPRPRPFPQPRP,-0.042
5,RRIRKRPPRLPRPRPRPRNAPRP,0.57
6,RRIRDRPPRLPRPRPRPKKLPRP,-0.0595
7,RRIRVRPPRLPRPRPRPESYPRP,0.45
8,RRIRIRPPRLPRPRPRPTSLPRP,-0.14
9,RRIRNRPPRLPRPRPRPGFWPRP,0.0198
10,RRIRKRPPRLPRPRPRPACTPRP,0.219
11,RRIRVRPPRLPRPRPRPDRTPRP,-0.252
12,RRIRERPPRLPRPRPRPITHPRP,-0.527
13,RRIRHRPPRLPRPRPRPYWRPRP,-0.347
14,RRIRVRPPRLPRPRPRPADMPRP,-0.173
15,RRIRFRPPRLPRPRPRPCSEPRP,0.0135
16,RRIRDRPPRLPRPRPRPGNLPRP,-0.0298
17,RRIRTRPPRLPRPRPRPFFEPRP,0.123
18,RRIRRRPPRLPRPRPRPGNEPRP,-0.301
19,RRIRCRPPRLPRPRPRPDINPRP,-0.294
20,RRIRIRPPRLPRPRPRPHSYPRP,-0.244
21,RRIRFRPPRLPRPRPRPHWPPRP,0.251
22,RRIRFRPPRLPRPRPRPFNEPRP,-0.322

row,Sequence,shrunken log2 fold change
1,RRIRTRPPRLPRPRPRPHHMPRP,-0.321
2,RRIRVRPPRLPRPRPRPAFRPRP,0.186
3,RRIRRRPPRLPRPRPRPAFSPRP,-0.00711
4,RRIRQRPPRLPRPRPRPVVLPRP,-0.227
5,RRIRERPPRLPRPRPRPSQPPRP,0.0471
6,RRIRSRPPRLPRPRPRPMYSPRP,-1.24
7,RRIRSRPPRLPRPRPRPVDNPRP,-0.493
8,RRIRRRPPRLPRPRPRPYWIPRP,-0.918
9,RRIRQRPPRLPRPRPRPTMNPRP,-0.298
10,RRIRERPPRLPRPRPRPMLWPRP,-0.0445
11,RRIRHRPPRLPRPRPRPQNFPRP,-0.522
12,RRIRMRPPRLPRPRPRPTPAPRP,2.13
13,RRIRTRPPRLPRPRPRPPWPPRP,0.356
14,RRIRTRPPRLPRPRPRPESEPRP,-0.0433
15,RRIRPRPPRLPRPRPRPREEPRP,0.111
16,RRIRKRPPRLPRPRPRPHPYPRP,-0.0228
17,RRIRIRPPRLPRPRPRPFKRPRP,-0.446
18,RRIRSRPPRLPRPRPRPMKYPRP,-0.278
19,RRIRHRPPRLPRPRPRPKQKPRP,-0.00654
20,RRIRHRPPRLPRPRPRPDKQPRP,0.0409
21,RRIRSRPPRLPRPRPRPTNAPRP,-0.0746
22,RRIRFRPPRLPRPRPRPAHMPRP,0.129

row,Sequence,shrunken log2 fold change
1,RRIRRRPPRLPRPRPRPTHYPRP,1.2
2,RRIRRRPPRLPRPRPRPEDFPRP,0.117
3,RRIRRRPPRLPRPRPRPGDIPRP,0.0886
4,RRIRKRPPRLPRPRPRPNYYPRP,-0.305
5,RRIRKRPPRLPRPRPRPPWGPRP,0.501
6,RRIRMRPPRLPRPRPRPHEIPRP,0.356
7,RRIRSRPPRLPRPRPRPILEPRP,0.0161
8,RRIRIRPPRLPRPRPRPYVMPRP,-0.274
9,RRIRIRPPRLPRPRPRPTSFPRP,-0.11
10,RRIRSRPPRLPRPRPRPCRTPRP,-0.2
11,RRIRIRPPRLPRPRPRPHHIPRP,-0.641
12,RRIRKRPPRLPRPRPRPTFSPRP,0.148
13,RRIRGRPPRLPRPRPRPGWHPRP,0.277
14,RRIRIRPPRLPRPRPRPHEYPRP,0.0332
15,RRIRARPPRLPRPRPRPHDKPRP,-0.0542
16,RRIRIRPPRLPRPRPRPGQCPRP,-0.13
17,RRIRMRPPRLPRPRPRPRHHPRP,0.415
18,RRIRGRPPRLPRPRPRPNPTPRP,0.602
19,RRIRFRPPRLPRPRPRPIDSPRP,-0.401
20,RRIRLRPPRLPRPRPRPVTMPRP,-0.195
21,RRIRSRPPRLPRPRPRPKAGPRP,0.19
22,RRIRSRPPRLPRPRPRPCESPRP,-0.0178

row,Sequence,shrunken log2 fold change
1,RRIRKRPPRLPRPRPRPIEYPRP,-0.156
2,RRIRDRPPRLPRPRPRPPAGPRP,0.418
3,RRIRQRPPRLPRPRPRPMTIPRP,-0.227
4,RRIRLRPPRLPRPRPRPPAIPRP,2.54
5,RRIRYRPPRLPRPRPRPNEEPRP,-0.0952
6,RRIRARPPRLPRPRPRPETCPRP,0.331
7,RRIRMRPPRLPRPRPRPGVVPRP,0.761
8,RRIRGRPPRLPRPRPRPRKNPRP,0.74
9,RRIRYRPPRLPRPRPRPDEWPRP,0.0549
10,RRIRQRPPRLPRPRPRPQDMPRP,0.0179
11,RRIRERPPRLPRPRPRPSFNPRP,-0.637
12,RRIRFRPPRLPRPRPRPHYCPRP,-0.197
13,RRIRTRPPRLPRPRPRPNQDPRP,-0.308
14,RRIRKRPPRLPRPRPRPTWSPRP,0.278
15,RRIRGRPPRLPRPRPRPLIPPRP,-0.0737
16,RRIRCRPPRLPRPRPRPSNWPRP,0.0114
17,RRIRWRPPRLPRPRPRPPERPRP,0.816
18,RRIRERPPRLPRPRPRPEYTPRP,-0.313
19,RRIRPRPPRLPRPRPRPCNSPRP,-0.276
20,RRIRQRPPRLPRPRPRPHCQPRP,-0.39
21,RRIRSRPPRLPRPRPRPHPVPRP,0.12
